Values quoted from earlier work as cited in US20180318303A1, “METHODS FOR TREATING MYELOPROLIFERATIVE DISORDERS” (Promedior, Inc., priority 2015, published 2018).

Conditions: in vivo

Q: For “SAP: naturally occurring serum protein in mammals composed of five identical subunits, non-covalently associated in a disk-like complex”, which physiological half-life is on record?
A: twenty-four
